From patent US12338199B2, “Bis-octahydrophenanthrene carboxamides and protein conjugates thereof” (REGENERON PHARMACEUTICALS, INC., priority 2017, dated 2025)
Positions count from the first letter of the chain named. In names and notes the source's numbering stands. Read-outs that look alike come from different tables or passages of the source.

B1: H1H27754P-N297Q (antibody, V domains shown)
VH: EVQLVESGGGLVQPGGSLRLSCAASGFTFRTYAMTWVRQAPGKGLDWVSAITGDGGNTYYADSVKGRFTISRDNSKNTLYLQMNSLRAEDTAIYYCAKDQRFSFALYYFDYWGQGTLVTVSS
VL: DIQMTQSPSSVSASVGDRVTITCRASQGISSWLAWYQQKPGNAPKLLIYAAFSLQSGVPSRFSGSGSGTDFTLTISSLQPEDFATYYCQQANNFPWTFGQGTKVEIKR
B2: H1H27731P-N297Q (antibody, V domains shown)
VH: QLQLQESGPGLVKPSETLSLTCTVSGGSISRISYYWGWIRQPPGKGLEWIGSIYDSGSTYYNPSLKSRVTISIDTSKNQFSLKLSSVTAADTAVYYCVRYSSSSAFAFDYWGQGTLVTVSS
VL: B1 VL with N42K, F52S, N93S, W96F, Q100P, E105D
B3: H1H27739P-N297Q (antibody, V domains shown)
VH: EVQLVESGGGLVQPGGSLRLSCTASGFTFSSYAMSWVRQAPGKGLEWVSAISGTGSSTYFTDSVKGRFAISRDNSKNTLYLQMNSLRAEDTAVYYCAKDGEWLSTVTLFDYWGQGTLVTVSS
VL: EIVMTQSPATLSVSPGERATLSCRASQSVSSNLAWYQQKPGQAPRLLIYGASTRATGIPARFSGSGSGTDFTLTISSLQSEDFALYYCQQYFIWPPHPTFGPGTKVDIKR
B4: H1H27734P-N297Q (antibody, V domains shown)
VH: EVQLVESRGGLVQPGGSLRLSCAASGFTFSSYAMSWVRQAPGKGLEWVSAISGSGGSTFYADSVKGRFTISRDNSKNTVYLQMNSLRAEDTAVYYCAKALVLRFLEWLGDYWGQGTLVTVSS
VL: DIQMTQSPSTLSASVGDRVTITCRASQSISSWLAWFQQKPGKAPKLLIYKASSLESGVPSRFSGSGSGTEFTLTISSLQPDDFATYYCQQYKSYWTFGQGTKVEIKR
B5: H1H21234N (antibody, V domains shown)
VH: QVQLQESGPGLVKPSETLSLTCTVTGGSISRNYWSWIRQPPGKGLEWIGYIYYSGSIDYNPSLKSRVTISVDTSKNQFSLKLSSMTAADTAVYYCARDRWNWKYGMDVWGQGTTVIVSS
VL: EIVLTQSPGTLSLSPGERATLSCRASQTVRNNYLAWYHQKPGQAPRLLIYGASSRATGIPDRFSGSGSGTDFTLTISRLEPEDFTVYYCHQYGNSPWTFGQGTKMEIKR
B6: H1H21234N-N297Q (antibody, V domains shown)
VH: B5 VH
VL: B5 VL
B7: H1H21234N-N297Q-LP 13 (conjugate)
VH: B5 VH
VL: B5 VL
B8: H1H27729P-N297Q (antibody, V domains shown)
VH: QVQLVESGGGLVKPGGSLRLSCAASGFIFSDYYMSWIRQAPGKGLEWVSYISSSGTTIYGDSVKGRFTMSRDNAKNSLYLQMNSLRAEDTAVYYCARNYALFDYWGQGTLVTVSS
VL: DIQMTQSPSSLSASVGDRVTITCQASQDISKYLNWYQQKPGKAPKLLIYYTSNLETGVPSRFSGSGSGTDFTFTISSLQPEDIATYYCHQSDYLPFTFGPGTKVDIKR

How the values were obtained:
[1] = target: T1, His9-hMSR1 (human MSR1 extracellular domain) (Homo sapiens, UniProt P21757); test: Biacore surface plasmon resonance binding kinetics; conditions: 25° C.; for kd (s^−1) / kd: * = no dissociation observed, kd fixed at 1.00E−05; for Kd: calculated from the kinetic rates, read-out: KD (Molar); for ka: His9-hMSR1 binding to captured antibody
T1 construct: human MSR1 extracellular domain expressed with a N-terminal nonahistidine tag; purchased R&D Systems 2708-MS
T1 sequence (P21757 77-451 limits assumed): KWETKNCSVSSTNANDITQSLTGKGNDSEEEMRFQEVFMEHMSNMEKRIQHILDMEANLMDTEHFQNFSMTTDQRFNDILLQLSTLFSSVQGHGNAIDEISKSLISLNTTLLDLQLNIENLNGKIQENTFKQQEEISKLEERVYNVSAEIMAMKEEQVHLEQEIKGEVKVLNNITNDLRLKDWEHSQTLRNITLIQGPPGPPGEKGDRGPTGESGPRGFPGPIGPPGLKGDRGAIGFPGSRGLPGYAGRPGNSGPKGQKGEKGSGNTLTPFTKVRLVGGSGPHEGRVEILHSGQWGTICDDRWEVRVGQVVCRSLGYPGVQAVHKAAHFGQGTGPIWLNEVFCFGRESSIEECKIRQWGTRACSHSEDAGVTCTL
Method: The MSR1 antibodies disclosed herein were conjugated to various liver X receptor (LXR) payloads. This example describes how equilibrium dissociation constant (KD) values for human MSR1 reagents binding to human anti-MSR1 antibody-drug conjugates and their corresponding unconjugated parental antibodies were determined using a real-time surface plasmon resonance-based Biacore T200 biosensor.
All binding studies were performed in 10 mM HEPES, 300 mM NaCl, 3 mM EDTA, and 0.05% v/v Surfactant Tween-20, pH 7.4 (HBS-ET) running buffer at 25° C. The Biacore CM4 sensor chip surface was first derivatized by amine coupling with the goat anti-human Fcγ specific polyclonal antibody (Jackson ImmunoResearch Laboratories, Cat # BR-1008-39) to capture anti-MSR1 monoclonal antibodies. Binding studies were performed on human MSR1 extracellular domain expressed with a N-terminal nonahistidine tag (His9-hMSR1; R&D Systems, Cat #2708-MS).
The association rate (ka) and dissociation rate (kd) were determined by fitting the real-time binding sensorgrams to a 1:1 binding model with mass transport limitation using Scrubber 2.0c curve-fitting software. Binding dissociation equilibrium constant (KD) and dissociative half-life (t½) were calculated from the kinetic rates as: […]

THP1/LXR-Luc cells = test: LXR-luciferase reporter bioassay in PMA-differentiated THP1/LXR-Luc cells; format: cell-based, human; conditions: for S/N (signal to noise, ratio of RLU of standard one over RLU of standard eight) / EC50: PMA-differentiated THP1/LXR-Luc cells, 48 hours; for S/N (signal to noise, ratio of RLU of standard one over RLU of standard eight): luciferase activity; for EC50: luciferase activity (One-Glo), 10-point dose response 100 nM to 0.01 nM
Source text: To test the efficacy of anti-MSR1 antibody-LXR conjugates in vitro, a cell-based LXR responsive luciferase reporter assay was developed. To generate the assay cell line, a LXR regulated luciferase reporter gene [Cignal Lenti LXR Reporter (luc) kit (Qiagen, Cat # CLS-001L)] was transduced into THP1 cells, and cells were selected for two weeks in puromycin. The lentivirus expresses the firefly luciferase gene under the control of a minimal CMV promoter and tandem repeats of the LXR transcriptional response element. The resulting cell line is referred to as THP1/LXR-Luc cells.
THP1/LXR-Luc cells were seeded onto 96 well plates at 40,000 cells/well in media containing RPMI supplemented with 10% FBS and pencillin/streptomycin and subsequently differentiated with 200 nM Phorbol Myristate Acetate (PMA) for 3 days. After the 3-day differentiation period, three-fold serial dilutions of antibody drug conjugates, unconjugated antibodies, or free payloads in fresh media were added to the cells at final concentration ranging from 100 nM to 0.01 nM. Media alone served as a blank control. Forty-eight hours later, luciferase activity was determined after the addition of One-Glo™ reagent (Promega, Cat # E6130) to each well. Relative light units (RLUs) were measured on a Victor luminometer (PerkinElmer) and EC50 values were determined using a four-parameter logistic equation over a 10-point dose response curve (GraphPad Prism). The signal to noise (S/N) was determined by calculating the ratio of RLU of standard one over RLU of standard eight for each of the unconjugated anti-MSR1 antibodies or free payloads. “LP #” represents a linker-payload for which the corresponding structures are provided elsewhere herein, and “P #” represents a payload for which the corresponding structures are provided elsewhere herein.

THP-1 cells = test: BODIPY-cholesterol efflux in THP-1 macrophages; format: cell-based, human
Method: The ability of anti-MSR1 antibody-LXR conjugates to activate cholesterol efflux in a human macrophage cell line (THP-1; ATCC Catalog # TIB-202), was assessed using a fluorescent cholesterol analog.
Cells were differentiated into macrophages by addition of 100 nM Phorbol-12 myristate 13-acetate (Sigma, Catalog #P 8139) to the media and subjected to further incubation for 96 hours.
Percentage of BODIPY-cholesterol efflux was calculated using the following formula: [fluorescence in acceptor media/(fluorescence in acceptor media+fluorescence in cell lysate)]×100. Table 15 provides activated cholesterol efflux for the tested articles, and FIG. 15 illustrates the data in graph form.

Molecule	Kd [1]	ka [1]	kd [1]	other results
B1	0.0499 nM	200000 M⁻¹ s⁻¹	–	kd (s^−1) [1]: ≤ 1.00E−05* s^−1
B2	0.0855 nM	117000 M⁻¹ s⁻¹	1e-05 s⁻¹	–
B3	4.68 nM	119000 M⁻¹ s⁻¹	0.000555 s⁻¹	–
B4	7.72 nM	77200 M⁻¹ s⁻¹	0.000596 s⁻¹	–
B5	–	–	–	stimulation of the THP/Luc cells (THP1/LXR-Luc cells; 48-hour time point, in words): did not have any impact
B6	0.0454 nM	220000 M⁻¹ s⁻¹	–	S/N (signal to noise, ratio of RLU of standard one over RLU of standard eight) (THP1/LXR-Luc cells): No activation; EC50 (THP1/LXR-Luc cells): No activation; kd (s^−1) [1]: ≤ 1.00E−05* s^−1; Maximum efflux (%) (THP-1 cells; 24-hour treatment, BODIPY-cholesterol efflux): 18.7%; cholesterol efflux (THP-1 cells; after 24 hours, in words): did not demonstrated any measurable cholesterol efflux
B7	–	–	–	S/N (signal to noise, ratio of RLU of standard one over RLU of standard eight) (THP1/LXR-Luc cells): 9.6; EC50 (THP1/LXR-Luc cells; read-out: EC50): 0.98 nM
B8	8.67 nM	105000 M⁻¹ s⁻¹	0.000906 s⁻¹	–
